Values quoted from earlier work, collected in article PMC3507713.

Biological target: TRAIL (Homo sapiens) (UniProt P50591)
Sequence of UniProt P50591 (P50591 whole entry): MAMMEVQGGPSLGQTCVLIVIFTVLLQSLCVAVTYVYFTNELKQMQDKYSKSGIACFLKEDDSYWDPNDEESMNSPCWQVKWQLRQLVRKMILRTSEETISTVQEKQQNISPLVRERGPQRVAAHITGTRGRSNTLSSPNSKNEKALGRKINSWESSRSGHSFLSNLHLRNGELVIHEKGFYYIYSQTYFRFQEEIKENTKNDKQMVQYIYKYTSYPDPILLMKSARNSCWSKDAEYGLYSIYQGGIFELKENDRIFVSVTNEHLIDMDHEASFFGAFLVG

Kd: 400 nM
Substance: Osteoprotegerin (from UniProt O00300)
